Data from paper PMC2195994 (The Journal of Cell Biology, 2001).

T1: GST–IRS-58 (1–358) (human, UniProt Q9UQB8 1-358)
T1 sequence (looked up): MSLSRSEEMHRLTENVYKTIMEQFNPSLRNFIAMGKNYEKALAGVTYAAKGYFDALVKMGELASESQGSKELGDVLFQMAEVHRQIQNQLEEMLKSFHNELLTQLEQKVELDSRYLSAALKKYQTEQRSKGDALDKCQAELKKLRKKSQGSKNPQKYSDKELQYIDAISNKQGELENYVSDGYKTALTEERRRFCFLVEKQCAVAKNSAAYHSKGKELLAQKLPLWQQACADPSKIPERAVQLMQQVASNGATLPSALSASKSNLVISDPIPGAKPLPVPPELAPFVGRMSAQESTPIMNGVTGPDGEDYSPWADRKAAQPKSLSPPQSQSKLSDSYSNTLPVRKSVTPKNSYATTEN

T2: GST–IRS-58 (1–432) (human, UniProt Q9UQB8 1-432)
T2 sequence (looked up): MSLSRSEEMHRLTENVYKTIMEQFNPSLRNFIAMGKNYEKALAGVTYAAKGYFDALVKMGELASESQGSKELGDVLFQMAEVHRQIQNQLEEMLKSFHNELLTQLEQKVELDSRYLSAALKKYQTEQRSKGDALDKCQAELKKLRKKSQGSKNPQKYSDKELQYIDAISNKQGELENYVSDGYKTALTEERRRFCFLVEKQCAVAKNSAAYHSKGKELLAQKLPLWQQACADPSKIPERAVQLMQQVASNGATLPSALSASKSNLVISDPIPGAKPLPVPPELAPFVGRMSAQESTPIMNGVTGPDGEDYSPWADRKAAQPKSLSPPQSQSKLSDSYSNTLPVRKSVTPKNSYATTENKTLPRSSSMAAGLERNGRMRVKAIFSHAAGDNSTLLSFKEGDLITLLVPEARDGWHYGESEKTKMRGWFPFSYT

B1: Cdc42HsQ61L (natural protein)
chain: not shown
B2: IRS-58–GST fusion protein (202–305 amino acid residues) (domain or fragment, human, UniProt Q9UQB8 202-305, looked up)
chain: CAVAKNSAAYHSKGKELLAQKLPLWQQACADPSKIPERAVQLMQQVASNGATLPSALSASKSNLVISDPIPGAKPLPVPPELAPFVGRMSAQESTPIMNGVTGP

Columns and labels:
Assay in all cases: far-Western, overlay or dot blot
[1] = target: T1, GST–IRS-58 (1–358)
[2] = target: T2, GST–IRS-58 (1–432)
[3] = target: B1
[4] = target: Cdc42Hs L61C40 (human, UniProt P60953-1 1-191, L61 | C40)

Binder | binding result [1] | binding result [2] | binding result [3] | binding result [4]
B1 | binds | binds |  | 
B2 |  |  | binds | binds
